These results are taken from article PMC7111274.

Test in all cases: SEC
In test [1] the target is PEDV 3CL^pro variant Q295A (porcine epidemic diarrhea virus (FJZZ strain)).
Test [2] has as its target PEDV 3CL^pro variant R4A (porcine epidemic diarrhea virus (FJZZ strain)).
Test [3] concerns the target PEDV 3CL^pro variant R294A (porcine epidemic diarrhea virus (FJZZ strain)).
The target in test [4] is PEDV 3CL^pro variant S138A (porcine epidemic diarrhea virus (FJZZ strain)).

In the case of PEDV 3CL^pro variant Q295A (enzyme), the stoichiometry N in test [1] came out at 2.

For PEDV 3CL^pro variant R4A (enzyme), in test [2], the stoichiometry N was 2.

Consider PEDV 3CL^pro variant R294A (enzyme), for which the stoichiometry N in test [3] worked out at 2.

Turning to PEDV 3CL^pro variant S138A (enzyme), in test [4], the stoichiometry N came out at 2.

The term stoichiometry N denotes the number of molecules, sites or subunits per partner or assembly.
